# Laboratory results reported in patent US8183228B2, “Anticoagulant antithrombotic dual inhibitors comprising a biotin label” (MSD OSS B.V. Netherlands, priority 2005, dated 2012).
# Where a name gives a salt, the structure may show the parent alone.
# Assay: Pharmacokinetics - neutralization experiment with avidin i.v. in rat
# Assay type: in vivo
# Details: s.c. 500 nmol/kg
# Procedure: 3.2 Pharmacokinetics—Neutralization Experiment:
# Rats were treated with compound 10, 12, or 27 at a dose of 100 nmol/kg s.c. At t=1 h, a blood sample was taken and 10 mg/kg of Avidin (from egg white, Sigma) was administered i.v. to the rats treated with compound 10 or 12. Blood was sampled at 0.5-1-3-6 and 23 hours subsequently. The blood was treated as described in the pharmacokinetic experiment and the concentration of the samples was determined by measuring the (residual) anti-Xa activity. (FIG. 8)
# In a separate experiment compound 10, 17 or 26 was administered at a dose of 500 nmol/kg s.c. after which blood was collected at 24 hours. Then 10 mg/kg avidin was administered intravenously and blood was collected at 25 and 26 hours. (FIG. 9)
compound,measurement,setting,value
"CO[C@H]1O[C@H](COS(=O)(=O)O)[C@@H](O[C@@H]2O[C@@H](C(=O)O)[C@@H](O[C@H]3O[C@H](COS(=O)(=O)O)[C@@H](O[C@@H]4O[C@H](C(=O)O)[C@@H](O[C@H]5O[C@H](COS(=O)(=O)O)[C@@H](OCCOCCOCCOCCNC(=O)[C@H](CCCCN(C)C(=O)CCCC[C@@H]6SC[C@@H]7NC(=O)N[C@@H]76)NC(=O)COCCOCCOCCOCCNC(=O)c6cccc(S(=O)(=O)N[C@@H](Cc7ccc(OCCCCC8CCNCC8)cc7)C(=O)O)c6)[C@H](OC)[C@H]5OC)[C@H](OC)[C@H]4OC)[C@H](OS(=O)(=O)O)[C@H]3OS(=O)(=O)O)[C@H](OC)[C@H]2OC)[C@H](OS(=O)(=O)O)[C@H]1OS(=O)(=O)O [Compound 26, sodium salt]",level at time molar at 24 h,"plasma, sc, 24 h, before avidin, read-out: Plasma level T = 24 h",1070 ± 58 nM
same,Plasma level T = 26 h,2 hours after avidin 10 mg/kg i.v. at t = 24 h,361 ± 26 nM
same,% reduction of plasma concentration,"within 2 hours after avidin 10 mg/kg i.v. at t = 24 h, sodium salt",66%
